Laboratory results taken from the supplement of paper PMC10567573.
± gives the standard deviation.

Experiment: protein stability index of a GFP-peptide fusion (GPS, HEK-293T) (PSI 1-6); higher = more stable
Conditions: c terminus: a fixed tail appended
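Also: 24-mer peptide tiles fused after GFP, lentivirally expressed, FACS-sorted into six equal bins by GFP/DsRed ratio, decoded by Illumina sequencing, PSI is the read-weighted mean bin number.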

Sequence | protein stability index (treatment: DMSO) | protein stability index (treatment: MLN4924 1 uM, 8 h)
LMFFIMAAMLSMVKYNSCADRPFS [POMT2] | 3.19 ± 0.7 | 3.06 ± 0.32
SPSRAPGLRQRASNKVQDSAPVET [HMOX1] | 5.01 ± 0.27 | 5.22 ± 0.2
YNIATRRKALKNPSEEYGKILEVV [MLH1] |  | 2.74 ± 0.48
KNLYKLASQCCGVHVISLHIWELS [PTGFR] | 2.97 ± 0.15 | 3.06 ± 0.48
TRGHAISILFGFWTSFICDTYIVL [SMIM2] | 2.73 ± 0.4 | 2.78 ± 0.46
DDLRINLWHLAITDRSFNIVDIKP [PPP2R2C] | 2.19 ± 0.2 | 2.17 ± 0.19
LLFACSPPPASQPVVKALFGASAA [CDC25A] | 2.44 ± 0.12 | 2.35 ± 0.12
HSYNVTQRRPRVLSCLHSVCEQCL [RNF208] | 2.87 ± 0.17 | 3.16 ± 0.33
APHSTFFDPIVLLPCDLPKVVSRA [LPCAT4] | 2.67 ± 0.31 | 2.72 ± 0.15
GGAAWSIGAAPFSGRRNWCSYVVT [EMID1] | 1.94 ± 0.58 | 2.08 ± 0.095
QARLRDVSRREGALGWAPAAPPPL [ZBED3] | 3.44 ± 0.41 | 3.6 ± 0.35
LALRGRLQLEACGMRRKSLLTRKV [GOLPH3] | 2.26 ± 0.13 | 2.41 ± 0.21
RDIQDENQLLVADVKRLGKQNARF [STX11] | 4.21 ± 0.32 | 4.44 ± 0.18
YCDLPQLFQLSCSSTQLNELLLFA [OR3A1] | 2.61 ± 0.36 | 2.64 ± 0.57
GAHWMRQLVSFQKLKLTNNHLDPF [TBX5] | 2.18 ± 0.21 | 2.19 ± 0.45
PDHFDTAILFTRQDLCGVSTCDTL [ADAMTS4] | 2.83 ± 0.21 | 2.94 ± 0.4
QVLLKGMTSISLPSVMDPGAFETV [ZBTB22] | 2.61 ± 0.36 | 2.84 ± 0.37
ILQSPAFCEELESMIQEQFKKGKN [ADD1] | 3.53 ± 0.16 | 3.76 ± 0.17
FSKQIVLRGKSIKRAPGEETEKEE [NEUROD6] | 4.94 ± 0.28 | 5.1 ± 0.34
TRHLKRLALMIQSSGNTVLLLILC [TMEM192] | 2.55 ± 0.41 | 2.35 ± 0.29
KQIAGGDVTAKNIWLAESVLDILT [INTS3] | 2.2 ± 0.064 | 2.13 ± 0.26
QQSPAAVSMETYHVTLTLPPTQLE [C2CD2L] | 3.37 ± 0.35 | 3.48 ± 0.35

Sequence | protein stability index (treatment: DMSO) | protein stability index (treatment: MLN4924 1 uM, 8 h)
YFDPLRNEYFFDRNRPSFDAILYY [KCNA3] | 2.62 ± 0.54 | 2.44 ± 0.32
QHIDNITQIEDATEKLKANAESSK [TRIM14] | 5.46 ± 0.065 | 5.33 ± 0.39
KSHLIFPQPNYADTLISQESCEKN [PCDHGA10] | 4.32 ± 0.17 | 4.32 ± 0.21
KQIAVAITEALRPAGVGVVVEATH [GCH1] | 2.37 ± 0.28 | 2.42 ± 0.25
MERLRELQRASILDMRRDHEEQLQ [FBF1] | 4.28 ± 0.28 | 4.42 ± 0.29
LLVGAAVFDALESDHEMREEEKLK [KCNK9] | 4.26 ± 0.34 | 4.29 ± 0.24
LVLLRDGRTLIGFLRSIDQFANLV [LSM1] | 2.23 ± 0.52 | 2.47 ± 0.47
GWPHEDAAQFTDFLIPMLEMVPEK [SRPK2] | 3.83 ± 0.26 | 4.01 ± 0.1
AYLVPYLVLLIIIGIPLFFLELAV [SLC6A17] | 3.83 ± 0.52 | 2.87 ± 0.28
QLQKILSIPQSSLEPLKAIIQYRL [ACSBG2] | 2.78 ± 0.86 | 2.36 ± 0.25
MREYKLVVLGSGGVGKSALTVQFV [RAP1B] | 2.51 ± 0.53 | 2.8 ± 0.75
IREDRDRARLDSMVLLIMKLDQLD [DLC1] | 2.35 ± 0.45 | 2.18 ± 0.32
KIGYHLLYYLRASKAAAGKMNLYE [INTS3] | 2.3 ± 0.49 | 2.25 ± 0.23
QHGLVLRDLKLCRFVFADRERKKL [TRIB3] | 2.38 ± 0.12 | 2.55 ± 0.18
YSYVYQDGLRLLGARARGVAMLGV [SOAT2] | 2.55 ± 0.59 | 2.25 ± 0.21
DQFDKDLPVYLKKDPAYFYGYVYF [DENND6A] | 2.46 ± 0.71 | 2.19 ± 0.59
EGKNMSFVNDLTVTQDGRKIYFTD [APMAP] | 3.98 ± 0.38 | 3.91 ± 0.58
TCSSCLLRAPTISDLLNDQDLLDV [EDARADD] | 2.57 ± 0.29 | 2.56 ± 0.43
ETDHLSMEEEDPMPRQISRQSSVT [TPRG1] | 5.37 ± 0.21 | 5.28 ± 0.36
EVRLVPVSFEDPEFKSSFSQSFSL [ATE1] | 2.56 ± 0.41 | 2.74 ± 0.39
SLQKLSTKLSAQSAQYSQQLQAAR [FCHSD1] | 3.34 ± 0.18 | 3.54 ± 0.22
LQVIKALKSSGLCESLTYGLPFIL [M1AP] | 3.04 ± 0.94 | 2.81 ± 0.83

Sequence | protein stability index (treatment: DMSO) | protein stability index (treatment: MLN4924 1 uM, 8 h)
QKYKLFQQQQLTFTAALEHCRENA [SPACA9] | 2.86 ± 0.24 | 3.12 ± 0.29
PRNADKIRVKIADLGNACWVHKHF [SRPK2] | 2.26 ± 0.12 | 2.42 ± 1.3
AEADEPTTHFQSIPDAFWWAVVTM [KCNA4] | 2.04 ± 0.76 | 2.11 ± 0.22
EDPVPGMLFFLPPGQHLSDYSQLN [FBXO34] | 3.03 ± 0.35 | 3.11 ± 0.38
VFDALESDHEMREEEKLKAEEIRI [KCNK9] | 5.27 ± 0.21 | 5.23 ± 0.17
NAREESLVEELSPASEKKPVPPSE [BCL2L13] | 5.33 ± 0.27 | 5.47 ± 0.14
AWSQRSAAGRVCRPPGPAGTEQSR [CPOX] | 4.16 ± 0.22 | 4.29 ± 0.16
SEPHYGHAGTVYGGVMYISGGITH [KLHL13] | 2.17 ± 0.47 | 2.14 ± 0.17
PLHVHEEEGILVAVGQDCYTRIWS [DCAF4] | 2.67 ± 0.3 | 2.74 ± 0.43
NLAFGRRCEELEDARYKLHHHLHK [TEKT4] | 3.2 ± 0.22 | 3.2 ± 0.16
DQPVMAVKTGEDGSNLDDAKGLAE [FANCE] | 5.44 ± 0.14 | 5.51 ± 0.26
VPTPLTNVQILLPVGEPVTNVRLQ [FCHO1] | 3.35 ± 0.34 | 3.36 ± 0.33
FVKDPQGRIIAVFKPKNEEPYGHL [PI4K2A] | 2.32 ± 0.26 | 2.9 ± 0.23
REAMLEMLLQHQICKEVQAEQEPT [SPAG8] | 4.1 ± 0.25 | 4.15 ± 0.39
EGGTAVTGGQTVVNPWIIIGGVAT [SEPHS2] | 2.68 ± 0.29 | 2.77 ± 0.43
SKCQRLFRSPSMPCSVIRPILKRL [CDC25B] | 2.85 ± 0.2 | 2.65 ± 0.24
CYKGHLEMVRFLLEAGADQEHKTD [ANKRD17] | 2.91 ± 0.13 | 3.02 ± 0.32
LLCAVCYDPFRDAVTLRCGHNFCR [TRIM35] | 2.38 ± 0.23 | 2.46 ± 0.29
PLQLLREMRQALQALLKENRLLQE [CBY2] | 2.93 ± 0.28 | 3.4 ± 0.51
FGMAKIDNLLQEMLLGGSPSDAPH [HNF4A] | 2.8 ± 0.25 | 2.76 ± 0.28
NDNSSDLLYDDLYDDDIDDEDEEE [UBE2R2] | 5.61 ± 0.41 | 5.63 ± 0.18
